# Reference: patent US20160193316A1 (priority 1994, published 2016)
# Read-outs that look alike come from different tables or passages of the source. No end group written: not given here.
# Tests used:
# DRB1*1302 (DR6w19) = molecular target: T1, DRB1*1302 (DR6w19) (Homo sapiens, UniProt P01903+P01911, A100E/A169T/K41T/L162R/M171V/P40S/Q125H/Q178H/Q39Y/Q99D/R42S/S66N/T262R/V115G/W38E/Y61H); assay: HLA class II peptide binding assay; details: for DR6w19 binding data: Table XIXb
# T1 construct: endogenous in cells; host or cells: H0301
# DRB1*0802 (DR8w2) = molecular target: T2, DRB1*0802 (DR8w2) (Homo sapiens, UniProt P01903+P01911, A100R/A103L/A169T/F76Y/H45Y/I96F/K41T/L162R/M171V/P40S/Q125H/Q178H/Q39Y/Q99D/R218S/R42G/S66Y/V115G/W38E); assay: biochemical; format: binding
# T2 construct: endogenous in cells; host or cells: OLL
# DRB1*1501 (DR2w2β1) = molecular target: T3, DRB1*1501 (DR2w2β1) (Homo sapiens, UniProt P01903+P01911); assay: HLA class II peptide binding assay; details: for DR2w2β1 binding data: Table XIXb
# T3 construct: expressed in transfected cells; host or cells: L466.1 (fibroblasts)
# DRB1*0101 (DR1) = molecular target: T4, DRB1*0101 (DR1) (Homo sapiens, UniProt P01903+P01911, A100R/D57E/F55L/F60I/F76Y/I96L/L162R/M171V/P40L/Q125E/R42F/V115G/Y59C); assay: HLA class II peptide binding assay; details: for DR1 binding data: Table XIXb, Malaria Super Motif Peptides With Binding Data
# T4 construct: endogenous in cells; host or cells: LG2
# DRB1*0301 (DR3) = molecular target: T5, DRB1*0301 (DR3) (Homo sapiens, UniProt P01903+P01911, A100K/A102G/A103R/A169T/F55Y/I96L/K41T/L162R/M171V/P40S/Q125H/Q178H/Q39Y/R42S/S66N/T106N/T262R/W38E/Y61H); assay: HLA class II peptide binding assay (pH 4.5); details: for Alleles bound (DR3): binding to DR3, Table XXXIV; for DR3 binding data: Table XIXb
# T5 construct: endogenous in cells; host or cells: MAT
# DRB1*0901 (DR9) = molecular target: T6, DRB1*0901 (DR9) (Homo sapiens, UniProt P01903+P01911, A100R/A103E/D57H/D86V/F55Y/F60I/F76Y/I96F/K127E/L162R/M171V/P40D/Q125H/Q99R/R33Q/R42F/S133A/S66N/T210M/V115G/W38K/Y107V/Y59G/Y89S); assay: biochemical; format: binding
# T6 construct: endogenous in cells; host or cells: HID
# DRB1*1101 (DR5w11) = molecular target: T7, DRB1*1101 (DR5w11) (Homo sapiens, UniProt P01903+P01911, A100R/A169T/A87E/I96F/K41T/L162R/M171V/P40S/Q125H/Q178H/Q39Y/Q99D/R42S/S66Y/T262R/V115G/W38E); assay: biochemical; format: binding
# T7 construct: endogenous in cells; host or cells: Sweig
# DRB1*0701 (DR7) = molecular target: T8, DRB1*0701 (DR7) (Homo sapiens, UniProt P01903+P01911, A100R/A102G/A103Q/D57E/D86V/E43K/F76Y/K127E/L162R/M171V/P40G/Q125H/Q99D/R33Q/R42Y/R54Q/S133A/S66F/T210M/V115G/Y107V/Y59L/Y89S); assay: biochemical; format: binding
# T8 construct: endogenous in cells; host or cells: Pitout
# DRB1*0405 (DR4w15) = molecular target: T9, DRB1*0405 (DR4w15) (Homo sapiens, UniProt P01903+P01911, A100R/A169T/D86S/F76Y/I96L/K127E/L162R/M171V/N62H/P40V/Q125Y/R42H/S133A/S149N/S66Y/V115G/V209L/W38E); assay: HLA class II peptide binding assay; details: for DR4w15 binding data: Table XIXb
# T9 construct: endogenous in cells; host or cells: KT3
# DRB1*0401 (DR4w4) = molecular target: T10, DRB1*0401 (DR4w4) (Homo sapiens, UniProt P01903+P01911, A100K/A169T/F76Y/I96L/K127E/L162R/M171V/N62H/P40V/Q125Y/R42H/S133A/S149N/S66Y/V115G/V209L/W38E); assay: HLA class II peptide binding assay; details: for DR4w4 binding data: Table XIXb
# T10 construct: endogenous in cells; host or cells: Preiss
# DRB4*0101 (DRw53) = molecular target: T11, DRB4*0101 (DRw53) (Homo sapiens, UniProt P01903+P13762, G164S); assay: HLA class II peptide binding assay (pH 5.0); details: for DRw53 binding data: Table XIXb
# T11 construct: expressed in transfected cells; host or cells: L257.6 (fibroblasts)
# DRB1*1201 (DR5w12) = molecular target: T12, DRB1*1201 (DR5w12) (Homo sapiens, UniProt P01903+P01911, A100R/A169T/D57E/D86V/F55L/H45Y/K41T/L162R/M171V/P40S/Q125H/Q178H/Q39Y/Q99D/R42G/S66L/T262R/V114A/V67L/W38E/Y59H/Y61H/Y89S); assay: HLA class II peptide binding assay; details: for DR5w12 binding data: Table XIXb
# T12 construct: endogenous in cells; host or cells: Herluf
# DRB5*0101 (DR2w2β2) = molecular target: T13, DRB5*0101 (DR2w2β2) (Homo sapiens, UniProt P01903+Q30154); format: binding
# T13 construct: expressed in transfected cells; host or cells: L416.3 (fibroblasts) or GM3107
# HLA-A*1101 = HLA-A*1101 (Homo sapiens, UniProt P04439, A114D/D185E/E176A/F33Y/L180Q/S129P/T187R); assay: HLA class I peptide binding assay; details: Table XVII, malaria A11 motif peptides; binding value unit not given
# [1] = DR3a motif peptides, unit not given, exemplary 15-mer containing the core sequence
# T1 sequence (P01903 26-254, other chains not shown): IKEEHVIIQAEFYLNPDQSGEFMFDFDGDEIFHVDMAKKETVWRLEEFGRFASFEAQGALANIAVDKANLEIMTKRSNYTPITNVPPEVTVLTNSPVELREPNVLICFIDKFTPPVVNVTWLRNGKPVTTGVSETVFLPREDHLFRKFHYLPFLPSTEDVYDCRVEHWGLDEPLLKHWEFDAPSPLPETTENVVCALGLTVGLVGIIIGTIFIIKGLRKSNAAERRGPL
# T4 sequence (P01903 26-254 partner, other chains not shown): as the sequence (P01903 26-254, other chains not shown) above
# T7 sequence (P01903 26-254, other chains not shown): as above
# T10 sequence (P01903 26-254 partner, other chains not shown): as the sequence (P01903 26-254, other chains not shown) above
Compound,DR6w19 binding data (DRB1*1302 (DR6w19)),DR8w2 binding data (DRB1*0802 (DR8w2)),DR4w15 binding data (DRB1*0405 (DR4w15)),DR4w4 binding data (DRB1*0401 (DR4w4)),DR2w2β1 binding data (DRB1*1501 (DR2w2β1)),DR1 binding data (DRB1*0101 (DR1); DR1),DR5w12 binding data (DRB1*1201 (DR5w12)),DR3 binding data (DRB1*0301 (DR3)),DR2w2β2 binding data (DRB5*0101 (DR2w2β2)),DR9 binding data (DRB1*0901 (DR9)),DR5w11 binding data (DRB1*1101 (DR5w11)),DR7 binding data (DRB1*0701 (DR7)),DRw53 binding data (DRB4*0101 (DRw53)),also measured
CC(C)C[C@H](NC(=O)[C@H](CC(N)=O)NC(=O)[C@H](CS)NC(=O)[C@@H](N)CCCCN)C(=O)N[C@@H](Cc1ccc(O)cc1)C(=O)N[C@@H](C)C(=O)N[C@@H](CC(=O)O)C(=O)N[C@@H](CO)C(=O)N[C@@H](C)C(=O)N[C@@H](Cc1c[nH]c2ccccc12)C(=O)N[C@@H](CCC(=O)O)C(=O)N[C@@H](CC(N)=O)C(=O)N[C@H](C(=O)N[C@@H](CCCCN)C(=O)N[C@@H](CC(N)=O)C(=O)O)C(C)C [Peptide 35.0172],–,–,–,–,–,–,–,–,–,–,–,–,–,IC50 (DRB1*1302 (DR6w19)): 11.1 µM; IC50 (DRB1*0802 (DR8w2)): > 20 µM; IC50 (DRB1*1501 (DR2w2β1)): 18.2 µM; IC50 (DRB1*0101 (DR1)): 23400 nM; IC50 (DRB1*0301 (DR3)): 0.857 µM; Alleles bound (DR3) (DRB1*0301 (DR3)): DR3; IC50 (DRB1*0901 (DR9)): > 20 µM; IC50 (DRB1*1101 (DR5w11)): > 20 µM; IC50 (DRB1*0701 (DR7)): > 20 µM
ILTDGIPDS,–,–,–,–,–,–,–,–,–,–,–,–,–,DR6w19 binding information (DRB1*1302 (DR6w19); [1]): 0.0002; DR8w2 binding information (DRB1*0802 (DR8w2)): -0.0003; DR4w15 binding information (DRB1*0405 (DR4w15); [1]): -0.0014; DR4w4 binding information (DRB1*0401 (DR4w4); [1]): 0.3600; DR2w2β1 binding information (DRB1*1501 (DR2w2β1); [1]): 0.0001; DR1 binding information (DRB1*0101 (DR1); [1]): 0.0002; DRw53 binding information (DRB4*0101 (DRw53); [1]): 0.0480; DR5w12 binding information (DRB1*1201 (DR5w12); [1]): 0.0002; DR3 binding information (DRB1*0301 (DR3); [1]): 0.1400; DR2w2β2 binding information (DRB5*0101 (DR2w2β2)): -0.0006; DR9 binding information (DRB1*0901 (DR9)): 0.0014; DR5w11 binding information (DRB1*1101 (DR5w11)): -0.0004; DR7 binding information (DRB1*0701 (DR7)): 0.0046
LAILSVSSF,0.0930,0.0013,0.0270,0.0078,0.5000,0.1000,0.1200,-0.0043,0.0130,0.1100,0.0370,0.0500,–,–
LALFFIIFN,-0.0002,-0.0007,0.0100,0.0047,0.0180,0.0006,0.0002,-0.0043,-0.0021,-0.0018,-0.0005,0.0056,–,–
LATSVLAGL,0.0072,0.1300,0.1200,3.2000,0.0018,1.2000,0.0073,0.0010,0.0700,2.6000,0.0210,0.6500,–,–
PDSIQDSLKESRKLN [Peptide 35.0171],–,–,–,–,–,–,–,–,–,–,–,–,–,"IC50 (DRB1*1302 (DR6w19)): > 20 µM; IC50 (DRB1*0802 (DR8w2)): > 20 µM; IC50 (DRB1*1501 (DR2w2β1)): 2.29 µM; IC50 (DRB1*0101 (DR1); read-out: Binding capacity (IC50 nM) DR1, DR1): > 20000 nM; Alleles bound (DR3) (DRB1*0301 (DR3)): DR3; IC50 (DRB1*0901 (DR9)): > 20 µM; IC50 (DRB1*1101 (DR5w11)): > 20 µM; IC50 (DRB1*0701 (DR7)): > 20 µM"
VHDLISDMI,0.0004,0.0096,0.0075,0.0310,–,0.0130,0.0001,0.0100,0.0061,0.0430,0.0037,0.0100,0.0940,–
VSTVLLGGV,0.0006,-0.0003,-0.0014,0.0016,0.0001,0.0140,0.0005,-0.0008,-0.0005,-0.0005,-0.0002,-0.0003,-0.0005,–
VVPGAATPY,0.0017,0.0026,-0.0014,0.0057,0.0008,0.1100,0.0061,-0.0008,0.0053,0.0200,0.0036,0.0160,–,A*1101 binding information (HLA-A*1101): 0.0002
YQNNIVDEI,0.0810,-0.0003,-0.0014,-0.0006,0.0001,0.0001,0.0001,0.0026,-0.0006,-0.0005,-0.0004,-0.0003,0.0850,–
